Columns and labels:
[1] = biological target: rodent α1β3 GABAA receptor on COS7 cells (Rattus norvegicus, UniProt P62813;P63079); test: immunostaining of cells or tissue
[2] = biological target: rodent GABAA receptor β3 subunit alone on COS7 cells (Rattus norvegicus, UniProt P63079); test: immunostaining of cells or tissue
[3] = biological target: rodent GABAA receptor γ2 subunit alone on COS7 cells (Rattus norvegicus (paper: rodent), UniProt P18508); test: immunostaining of cells or tissue
[4] = biological target: rodent α4β3γ2 GABAA receptor on COS7 cells (Rattus norvegicus (α4 rat; β3, γ2 …, UniProt P28471;P63079;P18508); test: immunostaining of cells or tissue
[5] = biological target: rodent α2β3γ2 GABAA receptor on COS7 cells (Rattus norvegicus (paper: rodent), UniProt P23576;P63079;P18508); test: immunostaining of cells or tissue
[6] = biological target: rodent α1β3γ2 GABAA receptor on COS7 cells (Rattus norvegicus (alpha1, beta3); …, UniProt P62813;P63079;P18508); test: immunostaining of cells or tissue
[7] = biological target: rodent α5β3γ2 GABAA receptor on COS7 cells (Rattus norvegicus (paper: rodent), UniProt P19969;P63079;P18508); test: immunostaining of cells or tissue
[8] = biological target: rodent α3β3γ2 GABAA receptor on COS7 cells (Rattus norvegicus (α3 rat; β3, γ2 …, UniProt P20236;P63079;P18508); test: immunostaining of cells or tissue
[9] = biological target: rat α1β3 GABAA receptor on HEK293T cells (Rattus norvegicus, UniProt P62813;P63079); test: immunostaining of cells or tissue
[10] = biological target: rat α1β3γ2 GABAA receptor on HEK293T cells (Rattus norvegicus, UniProt P62813;P63079;P18508); test: flow cytometry on cells
[11] = biological target: human α1β3γ2 GABAA receptor on HEK293T cells (Homo sapiens, UniProt P14867;P28472;P18507); test: flow cytometry on cells
human α1β3γ2 GABAA receptor on HEK293T cells, sequence (P14867 28-456, chain 1 of 3): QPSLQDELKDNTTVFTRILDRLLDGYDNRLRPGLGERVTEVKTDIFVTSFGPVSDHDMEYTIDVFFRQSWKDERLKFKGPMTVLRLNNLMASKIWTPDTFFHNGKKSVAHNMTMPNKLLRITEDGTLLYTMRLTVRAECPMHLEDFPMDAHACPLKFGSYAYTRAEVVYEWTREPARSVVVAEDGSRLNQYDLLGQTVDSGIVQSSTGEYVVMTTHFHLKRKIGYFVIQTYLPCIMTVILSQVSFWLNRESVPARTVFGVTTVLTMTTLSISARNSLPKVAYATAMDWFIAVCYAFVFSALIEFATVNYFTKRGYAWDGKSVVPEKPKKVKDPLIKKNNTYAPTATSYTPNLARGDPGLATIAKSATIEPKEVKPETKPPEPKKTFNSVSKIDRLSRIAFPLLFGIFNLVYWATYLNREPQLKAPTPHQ
human α1β3γ2 GABAA receptor on HEK293T cells, sequence (P28472 26-473, chain 2 of 3): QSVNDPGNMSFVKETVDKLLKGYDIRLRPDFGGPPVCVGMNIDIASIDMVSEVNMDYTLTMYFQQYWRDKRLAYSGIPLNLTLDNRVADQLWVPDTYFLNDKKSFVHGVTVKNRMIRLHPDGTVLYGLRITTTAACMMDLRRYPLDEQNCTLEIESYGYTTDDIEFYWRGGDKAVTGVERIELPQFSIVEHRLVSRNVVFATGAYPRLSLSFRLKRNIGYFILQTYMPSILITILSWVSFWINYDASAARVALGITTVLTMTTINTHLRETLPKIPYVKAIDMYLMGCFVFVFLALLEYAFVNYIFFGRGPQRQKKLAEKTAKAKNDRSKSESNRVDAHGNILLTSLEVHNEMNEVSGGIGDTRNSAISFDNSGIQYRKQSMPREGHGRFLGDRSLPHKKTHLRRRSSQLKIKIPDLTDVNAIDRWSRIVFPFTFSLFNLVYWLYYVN
human α1β3γ2 GABAA receptor on HEK293T cells, sequence (P18507 40-475, chain 3 of 3): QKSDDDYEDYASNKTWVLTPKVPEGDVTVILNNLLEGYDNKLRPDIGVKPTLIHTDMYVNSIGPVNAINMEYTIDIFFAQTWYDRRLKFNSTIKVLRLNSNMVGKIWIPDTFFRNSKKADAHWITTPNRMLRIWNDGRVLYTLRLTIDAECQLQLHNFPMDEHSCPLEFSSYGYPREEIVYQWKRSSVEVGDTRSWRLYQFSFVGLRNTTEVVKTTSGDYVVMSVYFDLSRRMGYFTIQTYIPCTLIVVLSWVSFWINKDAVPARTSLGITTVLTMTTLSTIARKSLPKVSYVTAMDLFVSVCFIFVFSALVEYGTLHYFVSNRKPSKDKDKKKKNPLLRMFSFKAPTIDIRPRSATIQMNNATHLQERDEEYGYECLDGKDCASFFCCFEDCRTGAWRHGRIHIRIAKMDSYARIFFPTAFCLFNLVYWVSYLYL

rodent GABAA receptor β3 subunit alone on COS7 cells, sequence (P63079 26-473): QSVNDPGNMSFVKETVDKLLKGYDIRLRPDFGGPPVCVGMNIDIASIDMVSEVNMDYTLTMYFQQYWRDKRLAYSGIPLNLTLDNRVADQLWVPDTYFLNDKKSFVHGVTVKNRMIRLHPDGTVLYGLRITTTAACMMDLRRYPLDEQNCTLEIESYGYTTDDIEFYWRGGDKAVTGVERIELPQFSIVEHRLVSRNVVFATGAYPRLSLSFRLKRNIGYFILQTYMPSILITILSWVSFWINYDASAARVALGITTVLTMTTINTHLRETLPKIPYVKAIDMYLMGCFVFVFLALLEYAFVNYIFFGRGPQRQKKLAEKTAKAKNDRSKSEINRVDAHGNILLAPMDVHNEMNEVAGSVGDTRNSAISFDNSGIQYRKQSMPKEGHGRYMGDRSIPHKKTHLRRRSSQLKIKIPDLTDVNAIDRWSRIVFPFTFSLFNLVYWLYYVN
rodent α2β3γ2 GABAA receptor on COS7 cells, sequence (P23576 29-451, chain 1 of 3): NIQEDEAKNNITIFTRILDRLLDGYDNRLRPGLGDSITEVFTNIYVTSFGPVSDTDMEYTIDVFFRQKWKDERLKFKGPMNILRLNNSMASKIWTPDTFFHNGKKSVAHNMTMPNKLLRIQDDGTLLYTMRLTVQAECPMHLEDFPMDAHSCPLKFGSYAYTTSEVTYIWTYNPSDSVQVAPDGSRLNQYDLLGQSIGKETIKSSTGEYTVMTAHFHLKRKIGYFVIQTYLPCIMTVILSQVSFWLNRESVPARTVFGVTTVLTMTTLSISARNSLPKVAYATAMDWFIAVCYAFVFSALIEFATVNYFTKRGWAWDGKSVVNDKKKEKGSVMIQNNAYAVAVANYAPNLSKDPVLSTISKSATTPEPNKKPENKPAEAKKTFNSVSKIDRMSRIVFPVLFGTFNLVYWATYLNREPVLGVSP
rodent α2β3γ2 GABAA receptor on COS7 cells, sequence (P63079 26-473, chain 2 of 3): as the sequence (P63079 26-473) above
rodent α2β3γ2 GABAA receptor on COS7 cells, sequence (P18508 39-466, chain 3 of 3): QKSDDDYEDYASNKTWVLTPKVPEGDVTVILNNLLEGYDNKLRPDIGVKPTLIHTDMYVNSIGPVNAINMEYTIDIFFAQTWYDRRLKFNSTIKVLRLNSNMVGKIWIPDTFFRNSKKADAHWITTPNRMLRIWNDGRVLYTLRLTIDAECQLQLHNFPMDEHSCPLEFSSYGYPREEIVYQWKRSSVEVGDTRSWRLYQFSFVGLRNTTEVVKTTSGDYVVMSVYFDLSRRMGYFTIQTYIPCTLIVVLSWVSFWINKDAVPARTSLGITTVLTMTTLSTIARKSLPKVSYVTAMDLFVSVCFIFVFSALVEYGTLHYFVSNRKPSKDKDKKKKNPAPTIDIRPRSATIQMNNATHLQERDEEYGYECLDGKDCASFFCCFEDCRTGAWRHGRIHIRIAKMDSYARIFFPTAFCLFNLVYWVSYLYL
rodent α4β3γ2 GABAA receptor on COS7 cells (Rattus norvegicus, sequence (P28471 36-552, chain 1 of 3): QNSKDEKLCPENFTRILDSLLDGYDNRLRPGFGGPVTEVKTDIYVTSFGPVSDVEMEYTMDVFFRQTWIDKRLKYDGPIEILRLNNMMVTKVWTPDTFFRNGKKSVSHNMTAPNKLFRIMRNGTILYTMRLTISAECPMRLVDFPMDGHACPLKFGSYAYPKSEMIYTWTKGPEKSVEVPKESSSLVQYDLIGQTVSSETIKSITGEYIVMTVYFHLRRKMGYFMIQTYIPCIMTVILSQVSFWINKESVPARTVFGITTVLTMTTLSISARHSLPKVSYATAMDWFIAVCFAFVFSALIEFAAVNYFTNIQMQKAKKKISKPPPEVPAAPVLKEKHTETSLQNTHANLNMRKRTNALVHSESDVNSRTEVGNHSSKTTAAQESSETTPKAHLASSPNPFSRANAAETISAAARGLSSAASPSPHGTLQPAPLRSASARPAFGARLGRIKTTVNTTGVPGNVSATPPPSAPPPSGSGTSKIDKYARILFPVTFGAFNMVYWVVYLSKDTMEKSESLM
rodent α4β3γ2 GABAA receptor on COS7 cells (Rattus norvegicus, sequence (P63079 26-473, chain 2 of 3): as the sequence (P63079 26-473) above
rodent α4β3γ2 GABAA receptor on COS7 cells (Rattus norvegicus, sequence (P18508 39-466, chain 3 of 3): as the sequence (P18508 39-466, chain 3 of 3) above
rodent GABAA receptor γ2 subunit alone on COS7 cells, sequence (P18508 39-466): as the sequence (P18508 39-466, chain 3 of 3) above

binding result [1] | binding result [2] | binding result [3] | binding result [4] | binding result [5] | binding result [6] | binding result [7] | binding result [8] | binding result [9] | binding result [10] | binding result [11] | Binder
binds | no binding (tested: 5 µg/ml) | no binding (tested: 5 µg/ml) | no binding (tested: 5 µg/ml) | no binding (tested: 5 µg/ml) | binds | no binding (tested: 5 µg/ml) | no binding (tested: 5 µg/ml) | binds | binds | binds | human monoclonal GABAAR antibody #113-115 (antibody, V domains shown) VH: QVQLVQSGAEVKKPGASVKVSCKASGYTFISYDINWVRQATGQGLEWMGGMDPKSGNTGYAQKFQGRVTMTTNTAISTAYMELSSLRSEDTAVYYCVRGEQSYDRTGYSDWFDPWGQGTLVTVSS VL: not shown
no binding (tested: 5 µg/ml) | no binding (tested: 5 µg/ml) | no binding (tested: 5 µg/ml) | no binding (tested: 5 µg/ml) | no binding (tested: 5 µg/ml) | binds | no binding (tested: 5 µg/ml) | no binding (tested: 5 µg/ml) | no binding | binds | binds | human monoclonal GABAAR antibody #113-175 (antibody, V domains shown) VH: EVQLLESGEGLVQPGGSLRLSCAASGFTFKTYAMSWVRQAPGKGLEWVSAISGSGASTYYADFVEGRFTISRDNSKNTLYLQMNSLRAEDTAVYYCAKEPPAMVWFGGGYFDYWGQGTLVTVSS VL: EIVLTQSPATLSLSPGERATLSCRASQSVSSYLAWYQQKPGQAPRLLIYDASNRATGIPARFSGSGSGTDFTLTISSLEPEDFAVYYCQQRSNWPPYSFGQGTKLEIK

Source: paper PMC8480667 (The Journal of Experimental Medicine, 2021)
